In patent US20240301056A1 (APITBIO, published 2024):
Residue numbers refer to the chain shown, from its start.

B1: Ab4H5 antibody (antibody, human IgG1, kappa, V domains shown)
VH: EVQLVESGGGVVQPGGSLRLSCAASGFTFSRFGMHWVRQAPGKGLEWVAFISNEGSNKYYADSVKGRFTISRDNSANTLYLQMNSLRAEDTAVYYCARGRAYGSGSLFDPWGQGTLVTVSS
VL: DIQLTQSPSSLSASVGDRVTITCRASRTISSYVNWYRQRPGKAPESLIYAASNLHSGVPSRFSGSGSGTDFTLTISSLQPEDFATYYCQQAGFYTPWTFGQGTKLEIKR
notes: Whole human IgG1, kappa; also called Anti-L1CAM ("Ab4H5"); Ab4H5 mutant
B2: Ab5D12 antibody (antibody, human IgG1, kappa, V domains shown)
VH: B1 VH
VL: B1 VL with A91S, G92L, F93V, Y94W, T95Y
notes: Whole human IgG1, kappa; also called Anti-L1CAM ("Ab5D12"); Ab5D12 mutant
B3: Ab2C2 antibody (antibody, human IgG1, kappa, V domains shown)
VH: B1 VH
VL: B1 VL with T95S
notes: Whole human IgG1, kappa; also called Anti-L1CAM ("Ab2C2"); Ab2C2 mutant
B4: Ab612 antibody (antibody, human IgG1, kappa, V domains shown)
VH: B1 VH
VL: B1 VL with A91S, G92I, F93G, Y94R, T95G, W97V
notes: Whole human IgG1, kappa, purified on protein A; also called Anti-L1CAM ("Ab612")
B5: Ab4H6 antibody (antibody, human IgG1, kappa, V domains shown)
VH: B1 VH
VL: B1 VL with A91S, G92L, F93H, Y94F, T95Y
notes: Whole human IgG1, kappa; also called Anti-L1CAM ("Ab4H6"); Ab4H6 mutant

Each binder was assayed against Human L1CAM (purified protein) (human) (UniProt P32004) (assay: competitive ELISA; antibody pre-incubated with soluble human L1CAM, free antibody detected on coated human L1CAM).

Question: With B1 as the binder, how does the Affinity (K) read?
Answer: The Affinity (K) was 60 pM.

Question: Which Affinity (K) does the source give for B2 here?
Answer: The Affinity (K) was 120 pM.

Question: For B3, which Affinity (K) is on record?
Answer: Its Affinity (K) is 50 pM.

Question: B4 was tested. Which Affinity (K) did it give?
Answer: The Affinity (K) was 260 pM.

Question: With B5 as the binder, how does the Affinity (K) read?
Answer: Its Affinity (K) is 60 pM.

Each binder was assayed against Human L1CAM (purified protein) (human) (UniProt P32004) (assay: BLI (Octet RED384), antibody captured on AHC sensor, human L1CAM in solution; upper end told of the variants as a group, tied to Ab4H5 by the KD values of the same paragraph (0.2 nM against 8 pM)).

Question: With B1 as the binder, how does the fold increased affinity compared to Ab417 read?
Answer: The fold increased affinity compared to Ab417 was 25 fold.

The binders below were run against Human L1CAM (purified protein) (human) (UniProt P32004) (assay: competitive ELISA; upper end of the range, tied to Ab2C2 by Table 9).

Question: With B3 as the binder, how does the fold higher binding affinity than Ab417 read?
Answer: The fold higher binding affinity than Ab417 was 2 to 10 fold.

What follows are binders tested against Human L1CAM (purified protein) (human) (UniProt P32004) (assay: BLI, Octet RED384; antibody captured on AHC sensor, human L1CAM 50-0.78 nM as analyte).

Question: Which results are given for B1?
Answer: Kd: 0.00822 nM; koff: 2.98e-06 s⁻¹; kon: 363000 M⁻¹ s⁻¹

Question: Which results are given for B2?
Answer: Kd: 0.096 nM; koff: 3.94e-05 s⁻¹; kon: 411000 M⁻¹ s⁻¹

Question: What does the source list for B3?
Answer: Kd: < 0.001 nM; koff: < 1e-07 s⁻¹; kon: 344000 M⁻¹ s⁻¹

Question: B4 was tested. Which Kd did it give?
Answer: The Kd was 0.105 nM.

Question: And the koff?
Answer: Its koff is 3.28e-05 s⁻¹.

Question: And the kon?
Answer: Its kon is 313000 M⁻¹ s⁻¹.

Question: What does the source list for B5?
Answer: Kd: 0.0741 nM; koff: 2.77e-05 s⁻¹; kon: 373000 M⁻¹ s⁻¹

What follows are binders tested against T1, Mouse L1CAM on B16F1 cells (mouse, UniProt P11627 20-1260) (assay: flow cytometry on B16F1 cells, antibody 10 ug/ml, FITC anti-human IgG Fc secondary).
T1 construct: whole, on cells; also called mouse L1CAM-positive cells
T1 sequence (P11627 20-1260): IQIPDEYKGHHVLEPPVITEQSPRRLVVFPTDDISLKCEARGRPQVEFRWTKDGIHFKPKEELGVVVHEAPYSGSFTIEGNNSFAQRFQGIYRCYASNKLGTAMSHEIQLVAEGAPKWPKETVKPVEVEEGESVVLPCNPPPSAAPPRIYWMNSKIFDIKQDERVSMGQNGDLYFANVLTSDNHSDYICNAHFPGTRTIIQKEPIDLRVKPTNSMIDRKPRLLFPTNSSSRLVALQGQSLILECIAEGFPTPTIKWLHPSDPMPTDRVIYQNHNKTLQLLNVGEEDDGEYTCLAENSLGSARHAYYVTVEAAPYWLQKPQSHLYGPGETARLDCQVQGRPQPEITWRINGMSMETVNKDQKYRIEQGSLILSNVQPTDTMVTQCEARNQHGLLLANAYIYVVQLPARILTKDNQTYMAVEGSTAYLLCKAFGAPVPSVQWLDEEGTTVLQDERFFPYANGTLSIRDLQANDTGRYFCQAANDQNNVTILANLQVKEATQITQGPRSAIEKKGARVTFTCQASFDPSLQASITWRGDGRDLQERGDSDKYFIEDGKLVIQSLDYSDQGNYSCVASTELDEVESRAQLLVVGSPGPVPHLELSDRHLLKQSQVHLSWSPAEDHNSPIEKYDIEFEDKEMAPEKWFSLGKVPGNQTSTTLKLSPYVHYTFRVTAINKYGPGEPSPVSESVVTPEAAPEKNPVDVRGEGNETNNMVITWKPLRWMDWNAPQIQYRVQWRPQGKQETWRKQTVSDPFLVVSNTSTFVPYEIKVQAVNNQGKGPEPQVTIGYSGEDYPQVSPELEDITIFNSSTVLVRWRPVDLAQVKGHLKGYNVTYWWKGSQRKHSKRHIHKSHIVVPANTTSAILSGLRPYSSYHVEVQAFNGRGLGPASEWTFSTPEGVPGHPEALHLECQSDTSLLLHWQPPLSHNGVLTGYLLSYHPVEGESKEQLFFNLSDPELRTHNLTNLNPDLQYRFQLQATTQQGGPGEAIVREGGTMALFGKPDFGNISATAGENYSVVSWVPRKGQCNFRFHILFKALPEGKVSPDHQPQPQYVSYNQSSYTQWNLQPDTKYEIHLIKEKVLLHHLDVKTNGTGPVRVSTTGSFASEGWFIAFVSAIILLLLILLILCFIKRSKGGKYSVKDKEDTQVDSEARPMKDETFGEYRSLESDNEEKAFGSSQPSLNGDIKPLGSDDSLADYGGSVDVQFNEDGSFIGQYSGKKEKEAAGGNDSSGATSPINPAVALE
Protocol: In order to examine whether the variant antibodies selectively bind to human and mouse L1CAM, flow cytometry was performed using various types of cells. In this regard, as a comparative antibody, the Ab417 antibody which binds to human L1 CAM and mouse L1 CAM was used.
CHO-DG44 (ATCC No. PTA-3356) cells that are known to express no human L1CAM were cultured and used as a negative control. Also, cells expressing human L1CAM, human ovarian carcinoma, SKOV3 (ATCC No. HTB-77) and human non-small cell lung carcinoma, NCI-H522 (AYCC NO. CRL-5810) were cultured. As cells expressing mouse L1CAM, a melanoma cell line, B16F1 (ATCC No. CRL-6323) was cultured. The cultured cells were harvested using a dissociation buffer or 0.05% trypsin (GIBCO) for CHO-DG44 cell, resuspended in 1% PBA solution, and placed on ice for 20 minutes. The cells were then added to round bottom polystyrene test tube (Falcon) at a density of 4×10⁵ cells per tube. The purified antibodies were diluted in PBA solution at a concentration of 10 ug/ml, and 100 μl was added to each tube and mixed well. The tubes were placed in 4° C. for 1 hour. The secondary antibody which specifically binds to the Fc region of human IgG and is covalently linked with FITC (Sigma) was added to each tube at a ratio of 1:2000. The plate was wrapped with foil to block light and allowed to react at 4° C. for 1 hour. A staining reagent PI (propidium iodide, Sigma) was added at a ratio of 1:200 to evaluate cell viability. After all reactions were completed, FITC and PI fluorescent signals were detected in the cells.

Question: Does B1 bind?
Answer: Result: binds

Question: Does B2 bind?
Answer: Result: binds

Question: Does B3 bind?
Answer: Result: binds

Question: Does B4 bind?
Answer: Result: binds

Question: Does B5 bind?
Answer: Result: binds

What follows are binders tested against Human L1CAM (purified protein) (human) (UniProt P32004) (assay: competitive ELISA; lower end of the range, tied to Ab612 by Table 9).

Question: For B4, which fold higher binding affinity than Ab417 is on record?
Answer: The fold higher binding affinity than Ab417 was 2 to 10 fold.
